According to paper PMC4521584, “MutS/MutL crystal structure reveals that the MutS sliding clamp loads MutL onto DNA” (eLife, 2015):

Target: T1, WT MutS, full length (E. coli, UniProt P23909 1-853)
T1 construct: MutS, E. coli, wild type; also called MutS sliding clamp; source: mutS gene in vector pET-3D; purified as described previously
T1 sequence (looked up): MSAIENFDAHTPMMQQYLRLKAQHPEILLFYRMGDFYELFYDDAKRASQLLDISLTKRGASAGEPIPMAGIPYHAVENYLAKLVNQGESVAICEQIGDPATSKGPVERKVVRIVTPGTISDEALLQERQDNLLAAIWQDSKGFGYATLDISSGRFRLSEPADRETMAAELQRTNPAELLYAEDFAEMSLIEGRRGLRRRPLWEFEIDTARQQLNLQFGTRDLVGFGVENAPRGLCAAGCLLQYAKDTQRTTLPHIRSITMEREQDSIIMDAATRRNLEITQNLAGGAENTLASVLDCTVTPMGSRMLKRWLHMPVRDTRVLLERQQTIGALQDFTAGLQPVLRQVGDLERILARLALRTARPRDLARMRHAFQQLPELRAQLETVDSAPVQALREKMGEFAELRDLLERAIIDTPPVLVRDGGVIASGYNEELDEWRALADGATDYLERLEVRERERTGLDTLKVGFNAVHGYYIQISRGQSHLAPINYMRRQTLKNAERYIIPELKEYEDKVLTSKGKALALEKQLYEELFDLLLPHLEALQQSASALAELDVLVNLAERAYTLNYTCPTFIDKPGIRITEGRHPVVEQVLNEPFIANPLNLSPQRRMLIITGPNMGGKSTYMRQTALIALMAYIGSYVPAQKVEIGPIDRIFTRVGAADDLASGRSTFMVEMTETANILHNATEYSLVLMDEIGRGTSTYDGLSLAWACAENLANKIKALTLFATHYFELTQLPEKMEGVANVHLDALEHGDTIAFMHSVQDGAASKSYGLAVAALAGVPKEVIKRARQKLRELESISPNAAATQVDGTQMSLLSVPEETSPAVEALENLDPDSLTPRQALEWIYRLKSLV
Assay: SPR; two-step: 200 nM MutS with 1 mM ATP trapped as sliding clamps on immobilised, end-blocked 100-bp G:T DNA, then MutL (varying concentrations, 1 mM ATP) injected 120 s; MutS-only signal subtracted; 25 mM Hepes pH 7.5, 150 mM KCl, 5 mM MgCl2, 1 mM DTT, 0.05% TWEEN-20, 20% glycerol; not strictly affinity curves
Settings: both partners purified

binding result: binds
B1: WT His6-MutL, full length (natural protein, E. coli, UniProt P23367 1-615, looked up)
chain: MPIQVLPPQLANQIAAGEVVERPASVVKELVENSLDAGATRIDIDIERGGAKLIRIRDNGCGIKKDELALALARHATSKIASLDDLEAIISLGFRGEALASISSVSRLTLTSRTAEQQEAWQAYAEGRDMNVTVKPAAHPVGTTLEVLDLFYNTPARRKFLRTEKTEFNHIDEIIRRIALARFDVTINLSHNGKIVRQYRAVPEGGQKERRLGAICGTAFLEQALAIEWQHGDLTLRGWVADPNHTTPALAEIQYCYVNGRMMRDRLINHAIRQACEDKLGADQQPAFVLYLEIDPHQVDVNVHPAKHEVRFHQSRLVHDFIYQGVLSVLQQQLETPLPLDDEPQPAPRSIPENRVAAGRNHFAEPAAREPVAPRYTPAPASGSRPAAPWPNAQPGYQKQQGEVYRQLLQTPAPMQKLKAPEPQEPALAANSQSFGRVLTIVHSDCALLERDGNISLLSLPVAERWLRQAQLTPGEAPVCAQPLLIPLRLKVSAEEKSALEKAQSALAELGIDFQSDAQHVTIRAVPLPLRQQNLQILIPELIGYLAKQSVFEPGNIAQWIARNLMSEHAQWSMAQAITLLADVERLCPQLVKTPPGGLLQSVDLHPAIKALKDE
notes: MutL, E. coli, wild type; also called WT MutL; WT His-MutL; source: mutL gene in plasmid pTX418; purified as described previously
